In patent US20100233157A1 (published 2010):

Tests used:
[1] = molecular target: T1, Human Fas (CD95) on the cell surface (human, UniProt P25445 26-335); test: cell-based or functional assay
T1 sequence: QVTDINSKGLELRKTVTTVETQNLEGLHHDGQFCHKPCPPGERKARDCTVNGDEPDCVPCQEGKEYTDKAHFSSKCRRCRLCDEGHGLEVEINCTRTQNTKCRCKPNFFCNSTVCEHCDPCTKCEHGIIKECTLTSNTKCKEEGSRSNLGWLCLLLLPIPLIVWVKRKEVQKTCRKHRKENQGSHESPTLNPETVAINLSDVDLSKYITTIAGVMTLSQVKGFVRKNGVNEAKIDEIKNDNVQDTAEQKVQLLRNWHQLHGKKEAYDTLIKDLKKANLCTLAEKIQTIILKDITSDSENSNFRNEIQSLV

[2] = molecular target: T2, Chimpanzee Fas on the cell surface (chimpanzee, UniProt K6ZIR5 26-335); test: flow cytometry on chimpanzee cells
T2 construct: also called Fas on chimpanzee B cell line
T2 sequence: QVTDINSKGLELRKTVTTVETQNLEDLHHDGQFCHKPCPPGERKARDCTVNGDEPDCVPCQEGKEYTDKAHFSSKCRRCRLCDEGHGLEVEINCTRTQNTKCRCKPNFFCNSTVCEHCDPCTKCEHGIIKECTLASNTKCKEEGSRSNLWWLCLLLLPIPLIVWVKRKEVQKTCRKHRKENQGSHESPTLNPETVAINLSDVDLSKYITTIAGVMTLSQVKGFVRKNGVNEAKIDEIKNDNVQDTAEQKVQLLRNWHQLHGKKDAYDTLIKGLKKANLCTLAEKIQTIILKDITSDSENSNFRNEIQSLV

[3] = molecular target: T3, Recombinant human soluble Fas receptor (PeproTech, Cat. 310-20) (human, UniProt P25445 17-173); test: SPR (BIAcore 3000), soluble Fas immobilized on CM5 chip, antibody as analyte, bivalent analyte fit
T3 construct: Bought soluble form; also called sFas; rFas
T3 sequence (looked up): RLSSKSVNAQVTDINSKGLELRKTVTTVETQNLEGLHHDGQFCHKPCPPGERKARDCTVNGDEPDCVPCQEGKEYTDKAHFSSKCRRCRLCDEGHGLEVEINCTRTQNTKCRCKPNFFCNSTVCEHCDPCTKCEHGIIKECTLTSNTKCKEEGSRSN
Method: The interaction of F45D9 mAb's (γ-γ1 and γ4-isotypes) with immobilized soluble human Fas receptor was monitored by surface plasmon resonance detection using a BIAcore 3000 instrument. Recombinant human soluble Fas receptor (srFas) (PeproTech, cat. 310-20) was immobilized (concentration of 5 ug/ml in immobilization buffer: 10 mM sodium acetate pH 5.0) onto a CM5 sensor chip (BIAcore BR-1001-14) using an Amine Coupling kit (BIAcore, Cat. BR-1000-50), at a surface density of […] resonance units (RU). Deactivation of excess reactive groups on the chip surface was done by adding 1.0 M ethalonamine hydrochloride (pH 8.5). F45D9 mAb's-γ1 mAb were passed over the surface in equilibrium binding experiments at concentrations ranging from […] at a flow rate of 30 ul/min. Dilutions and binding experiments were conducted in 0.01 M HEPES (pH 7.4), 0.15 M NaCl, 3 mM EDTA, and 0.005% P-20 (BIAcore surfactant, BR-1001-88). Between each cycle 100 mM HCl was used to regenerate the surfaces at a flow rate 30 ul/min. KA and KD of F45D9 mAb's were-γ1 mAb was determined by fitting bivalentusing BIAcore models (BIAevaluation).

[4] = molecular target: T1, Human Fas (CD95) on the cell surface; test: flow cytometry on Jurkat cells, FITC anti-human IgG secondary, geometric MFI after background subtraction
Method: (§1) Binding of F45D9-γ1 and F45D9-γ4 to the surface of Fas expressing Jurkat and SKW6.4 cells (from ATCC, Jurkat, clone E6-1, ATCC-TIB-152, Human T Leukemia cell line); SKW6.4 cells, ATCC-TIB-215, Human B lymphoblastoid cell line) was explored by immunofluorescence staining and flow cytometry analysis. Cells were cultured in RPMI 1640 medium (GIBCO, Cat. 3105205) supplemented with 2 mM glutamax (GIBCO), 100 UI/mL penicillin, 100 μg/mL streptomycin (Sigma) and 5-10% fetal bovine serum (GIBCO), at 37° C. and 5% CO₂. After washing in PBS Jurkat or SKW6.4 cells (0.2×10⁶ cells/well) were incubated in staining buffer (PBS/1% FBS) containing F45D9-γ1, F45D9-γ4 or human IgG control antibodies (Human IgG1, kappa, Sigma, Cat. I5154 or Human IgG4, kappa, Sigma, Cat. I4639) in a 96-well U-bottom plate for 30 min on ice, in a 100 ul/well volume. Cells were then washed once with staining buffer, and further incubated for 30 min on ice with 1:30 dilution of FITC-conjugated rabbit F(ab′)₂ anti-human IgG (DakoCytomation Cat. F0056). After washing and fixing with 1% formaldehyde in PBS cells were analyzed in a FACScan (Becton Dickinson, Mountain View, Calif.). The reactivity of F45D9-γ1 and F45D9-γ4 to the surface of Jurkat cells was quantified and Geometric Mean Fluorescence Intensity (MFI) after background subtraction (FIG. 1A) and histograms (FIG. 1B) are shown. […]

[5] = molecular target: T1, Human Fas (CD95) on the cell surface; test: flow cytometry on SKW6.4 cells, FITC anti-human IgG secondary, geometric MFI after background subtraction
Method: as §1

B1: F45D9-γ1 F(ab′)2 fragment (other)
VH: QVQLQQWGAGLLKPSETLSLICAVYGGSFSTYYWTWIRQPPGKGLEWIGEINHRGTTNYSPSLKSRVTISVDTSKNHISLNLTSVTAADTALYYCARGLLWIGEGDYGLDVWGQGTTVTVSS
VL: DIQMTQSPSSLSASVGDRVTITCRASQGIRRWLAWYQQKPEKAPKSLIYAASSLQSGVPSRFSGSGSGTDFTLTISSLQPEDFATYYCQQYNSYPYTFGQGTKLEIKR
share of binding capacity on Jurkat cells at which complete blocking of FasL-induced apoptosis is achieved [1]: ≥ 12.5%

B2: F45D9-γ4 mAb (recombinant human mAb T19/B5-1F9, gamma-4 isotype) (antibody, V domains shown)
VH: QVQLQQWGAGLLKPSETLSLICAVYGGSFSTYYWTWIRQPPGKGLEWIGEINHRGTTNYSPSLKSRVTISVDTSKNHISLNLTSVTAADTALYYCARGLLWIGEGDYGLDVWGQGTTVTVSS
VL: DIQMTQSPSSLSASVGDRVTITCRASQGIRRWLAWYQQKPEKAPKSLIYAASSLQSGVPSRFSGSGSGTDFTLTISSLQPEDFATYYCQQYNSYPYTFGQGTKLEIKR
notes: Whole human IgG4 (γ4P allotype vector pIESRαγ4P) with human kappa light chain, made in CHO DG44 cells; also called IgG4; T19/L22/B5-1F9
IC50 of inhibition of rhFasL-induced apoptosis in SKW6.4 cells (Annexin-V/PI, flow cytometry) [1]: 0.2 nM
IC50 of inhibition of rhFasL-induced apoptosis in activated human T cells (Annexin-V/PI, flow cytometry) [1]: 0.02 nM
share of binding capacity on Jurkat cells at which complete blocking of FasL-induced apoptosis is achieved [1]: ≥ 12.5%
binding result [2]: binds
Kd [3]: 0.0587 nM
EC50 (read off the curve) [4]: ~0.6 µg/mL
EC50 (read off the curve) [5]: ~0.7 µg/mL
